Results reported in the nanobody polyreactivity screen of Harvey et al. (2022).

Assay: yeast display, Sf9 membrane polyspecificity reagent, FACS + sequencing; frameworks hold sequencing errors
Procedure, shortened: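 After 36–48 hours of galactose induction, yeast (Saccharomyces cerevisiae BJ5465) displaying a synthetic nanobody library were stained at 4 °C for 1 hour with 10% biotinylated, detergent-solubilized Sf9 membrane reagent. Streptavidin microbeads enriched the stained cells before FACS sorting into low and high (top ~1%) gates on anti-HA and streptavidin fluorescence. Each clone's polyreactivity label reflects its gate of origin.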

Sequence	polyreactivity (PSR sort gate)
QVQLVESGGGLVQAGGSLRLSCAASGFIFPGNARAWYRQAPGKERELVAAISNSGSRTYYADSVKGRFTISRDNAKNTVYLQMNSLKPEDTAVYYCNADVPNRGWPYDYWGQGTQVTVSS	low polyreactivity
QVQLVESGGGLVQAGGSLRLSCAASGFIFLSYAMGWYRQAPGKESELVAAITSNGGSTYYADSVKGRFTISRDNAKNTVYLQMNSLKPEDTAVYYCSADSGYGPYYYWGQGTQVTVSS	high polyreactivity
QVQLVESGGGLVQAGGSLRLSCAASGSIIFGYGMGWYRQAPGKERELVATITTSGGTYYADSVKGRFTISRDNAKNSVYLQMNSLKPEDTAVYYCAATAAALDGNTIMYYWGQGTQVTVSS	low polyreactivity
QVQLVESGGGLVQAGGSLRLSCAASGNTFQRYTMGWYRQAPGKERELVAAINSSGGSTFYADSVKGRFTISRDNAKNTVYLQMNSLKPEDTAVYYCAASWHTPTVYDEYYYWGQGTQVTVSS	low polyreactivity
QVQLVESGGGLVQAGGSLRLSCAASGRTYVPNAMGWYRQAPGKEREFVAAITSRGGRTFYADSVKGRFTISRDNAKNTVYLQMNSLKPDDTAVYYCAAYRPGFVYGRLDYWGQGTQVTVSS	high polyreactivity
QVQLVESGGGLVQAGGSLRLSCAASGIIFGIYDMGWYRQAPGKERELVAAIRRSGGSTYYADSVKGRFTISRDNAKNTVYLQMNSLKPEDTAVYYCAATRHSRVRGGDYWGQGTQVTVSS	low polyreactivity
QVQLVESGGGLVQAGGSLRLSCAASGSIFFSNAMGWYRQAPGKERELVAAITSTGGSTYYADSVKGRFTISRDTAKNTVYLQLNSLKPEDTAVYYCAAASRRGYYYWGQGTQVTVSS	high polyreactivity
QVQLVESGGGLVQAGGSLRLSCAASGRIFPYYVMGWYRQAPGKERELVAAISRSGSSTYYADSVKGRFTITRDNAKNTVYLQMNSLKPEDTAVYYCAADYNWSPYYTRGDYWGQGTQVTVSS	high polyreactivity
QVQLVGSGGGLVQAGGSLRLSCAASGRTFRAYAMGWYRQAPGKERELVAAIRSSGGSTYADSVKGRFTISRDNAKNTVYLQMNSLKPEDTAVYYFAKPIAPARNAYPAYDYWGQGTQVTVSS	high polyreactivity
QVQLVESGGGLVQAGGSLRLSCAASGSIFYPYVMGWYRQAPGKERELVAAITTSVGSTYYADSVKGRFTISRDNAKNTVYLQMNSLKPEDTAVYYCAAIYFGSRRPGRYNYWGQGTQVTVSS	high polyreactivity
QVQLVESGGGLVQAGGSLRLTCAASGSTFYRYAMGWYRQAPGKERELVAAISTSGGRTYYADSVKGRFTISRDNAKNTVYLQMNSLKPEDTAVYYCAADQYRYYRSTYDYWGQGTQVTVSS	high polyreactivity
QVQLVESGGGLVQAGGSLRLSCAASGRIFRRYAMGWYRQAPGKERELVAAISSGGSTYYADSVKGRFTISRDNAKNTVYLQMNSLKPEDTAVYYCNAIVGAYLNYGYWGQGTQVTVSS	low polyreactivity
QVQLVESGGGLVQAGGSLRLSCAASGSIFYHNPMGWYRQAPGKERELVAAITSRGGRTTYADSVKGRFTISRDNAKNTVYLQMNSLKPEDTAVYYCNAVYTGYSYISRVDYWGQGTQVTVSS	low polyreactivity
QVQLVESGGGLVQAGGSLRLSCAASGRTFRYYAMGWYRQAPGKERELVAAISSGGSTNYADSVKGRFTISRDNAKITVYLQMNSLKPEDTAVYYCAALWSGNKFNYWGQGTQVTVSS	low polyreactivity
QVQLVESGGGLVQAGGSLRCSCSASGGIFVNYAMGWSRPAPGKETELVAAISRSGGSTYYADSVKGRFTISRDNANNTVYLQMNSLKPEDTAVYYCAKRRVYYGSRYHYWGEGTQVTVSS	high polyreactivity
QVHLVESGGGLVQAGGSLRLSCAASGRIFGRYAMGWYRQAPGKERELVARITTSGGSTSYADSVKGRFTISRDNAKNTVYLQMNSLKPEDTAVYYCAADRARYYSEYDYWGQGTQVTVSS	low polyreactivity
QVQLVESGGGLVQAGGSLRLSWAASGSIFNTYVMGWYRQAPGKEWELVAAITYSAGGDTYYADSVKGRFTISRDNAKNTVYLQMNSLKPEDTAVYYCAAEYTYLDAYGSYDYWGQGTQVTVSS	low polyreactivity
